Measurements reported in patent US20250236667A1, “ANTIBODIES TO MUTANT CALRETICULIN AND USES THEREOF” (CENTRAL ADELAIDE LOCAL HEALTH NETWORK INC, priority 2021, published 2025).

T1: full-length 30 amino acid CALR mutant neoepitope peptide (peptide used for immunisation) (human)
T1 construct: also called full-length peptide
T1 peptide: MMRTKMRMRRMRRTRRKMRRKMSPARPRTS

T2: thrombopoietin receptor (TpoR) (UniProt P40238 26-635, limits assumed)
T2 construct: whole, on cells; It was immunoprecipitated with anti-FLAG beads, so the expressed TpoR evidently carries a FLAG tag; The construct and the position of the tag are not described; also called TPO receptor
T2 sequence (looked up): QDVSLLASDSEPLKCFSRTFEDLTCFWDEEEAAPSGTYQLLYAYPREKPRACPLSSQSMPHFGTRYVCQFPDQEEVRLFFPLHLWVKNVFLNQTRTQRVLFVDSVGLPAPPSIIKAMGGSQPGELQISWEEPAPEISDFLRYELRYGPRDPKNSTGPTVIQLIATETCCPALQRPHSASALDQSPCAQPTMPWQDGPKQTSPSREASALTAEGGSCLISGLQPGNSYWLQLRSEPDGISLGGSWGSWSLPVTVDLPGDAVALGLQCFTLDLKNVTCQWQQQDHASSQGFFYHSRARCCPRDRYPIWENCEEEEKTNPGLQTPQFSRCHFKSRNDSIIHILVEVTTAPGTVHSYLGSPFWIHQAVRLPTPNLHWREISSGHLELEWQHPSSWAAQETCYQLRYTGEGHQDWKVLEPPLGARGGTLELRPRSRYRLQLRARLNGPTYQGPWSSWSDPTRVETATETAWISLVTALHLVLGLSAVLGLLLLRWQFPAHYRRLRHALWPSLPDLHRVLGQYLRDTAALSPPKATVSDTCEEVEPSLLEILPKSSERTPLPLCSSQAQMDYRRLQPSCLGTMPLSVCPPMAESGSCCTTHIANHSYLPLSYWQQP

B1: 2D2 rat monoclonal anti-mutant calreticulin antibody (antibody, V domains shown)
VH: QVQLQQSGAELTKPGSSVKISCKTSGYTFTTYDISWIKQRPGQALEWIGAIYPGGVTTGYNEKFKGKATLTVDKSSNTAFMQLSSLTPEDTAVYYCARWGHTTGTRFDHWGQGVMVTVSS
VL: DVLLTQTPVSLSVSLGDQASISCRSSQSLEYSDGYTYLEWYVQKPGQSPQLLIYEVSDRFSGVPDRFIGSGSGTDFTLKISRVEPEDLGVYYCFQATHDPPTFGGGTKLELK
notes: also called rat anti-human mutCALR 2D2
B2: wild type calreticulin (CALR) (other, human, UniProt P27797 18-417, looked up)
chain: EPAVYFKEQFLDGDGWTSRWIESKHKSDFGKFVLSSGKFYGDEEKDKGLQTSQDARFYALSASFEPFSNKGQTLVVQFTVKHEQNIDCGGGYVKLFPNSLDQTDMHGDSEYNIMFGPDICGPGTKKVHVIFNYKGKNVLINKDIRCKDDEFTHLYTLIVRPDNTYEVKIDNSQVESGSLEDDWDFLPPKKIKDPDASKPEDWDERAKIDDPTDSKPEDWDKPEHIPDPDAKKPEDWDEEMDGEWEPPVIQNPEYKGEWKPRQIDNPDYKGTWIHPEIDNPEYSPDPSIYAYDNFGVLGLDLWQVKSGTIFDNFLITNDEAYAEEFGNETWGVTKAAEKQMKDKQDEEQRLKEEEEDKKRKEEEEAEDKEDDEDKDEDEEDEEDKEEDEEEDVPGQAKDEL
notes: also called CALR^WT; endogenous wild type CALR

How the values were obtained:
[1] = test system: healthy cord blood CD34+ cells; test: cells; type: cell-based, human; settings: Homo sapiens, 288 h, 12 days, read-out: inhibition of megakaryocyte formation
Protocol: Umbilical cord blood (UCB) was collected with written consent from full-term deliveries at the Women's Health Unit, Lyell McEwin Hospital (Adelaide, South Australia) or the Department of Obstetrics and Gynecology, Medical University of Graz (Austria) with institutional review board approval (IRB approval: 31-322 ex 18/19; HREC/20/WCHN/65). Samples were processed using a Ficoll-Paque (GE Healthcare) density gradient to isolate mononuclear cells (800×g, room temperature, 30 minutes, deceleration off), followed by red cell lysis (ammonium-chloride-potassium lysing buffer) to remove remaining red blood cells. CD34 enrichment was performed by magnetic cell separation using CD34 Microbead kit (Miltenyi Biotech). Alternatively, purified CD34+ cells from cord-blood were purchased from Lonza. CD34+ cells with a purity above 90% were either cryopreserved or directly cultured in serum-free stem cell retention media (StemSpan SFEMII, Stemcell Technologies, Vancouver, BC, Canada) supplemented with human recombinant SCF, TPO, FLT3, IL-6 (all 20 ng/mL), UM729 (1.75 uM) and StemReginin 1 (SR1, 300 nM). All cytokines and SRI were purchased from PeproTech (Rocky Hill, NJ, USA) whereas UM729 was purchased from Stemcell Technologies.
For megakaryocyte differentiation assays, CD34+ cells derived from cord blood or from patient peripheral blood mononuclear fractions were plated in Megacult (MegaCult™-C Collagen and Medium with Lipids) with added IL-3 and IL-6 (10 ng/ml) in the presence or absence of 50 ng/mL TPO. Cells were plated at an initial density of 1800 cells/well and cultured for 12 days at 37° C. and 5% CO2. […] Culture media was replenished every 3 days and cells were assessed for megakaryocyte differentiation on day 12 using anti-human CD41/61 PE-Cy7 (Clone A2A9/6) and CountBright beads (Thermo Fisher) to enumerate cell numbers. […] Cells were seeded at approximately 100 cells per well and were cultured in the presence of 20 μg/mL 4D7 or control IgG antibody and scored for colony and blast forming units at 12-14 days.

[2] = biological target: T1, full-length 30 amino acid CALR mutant …; test: ELISA on peptide
[3] = test system: 30 amino acid peptide corresponding to the C-terminal mutant CALR neoepitope sequence; test: ELISA binding to peptide; set-up: species or system human
Protocol: (§1) Rats were immunised with a CALR mutant peptide “MMRTKMRMRRMRRT RRKMRRKMSPARPRTS” coupled to KLH, this peptide sequence is unique to CALR mutant. Serum from the immunised rats was screened by enzyme linked immunoassay, to verify a strong titre to the peptide immunogen, prior to performing the hybridoma fusion. Immunised rat spleen cells were harvested and a spleen single cell suspension was combined with Sp2/O myeloma cell line. The cell mixture was treated with polyethylene glycol plus DMEM prior to been plated in 96 well flat bottom plates. The expanding hybridomas were screened initially by ELISA and the positive clones were further verified by western blot, for reactivity to the expressed CALR mutant protein before subcloning the hybridomas for antibody production.

[4] = test system: TF-1 TpoR CALR^del61 cells; test: Cell proliferation, trypan blue exclusion; type: cell-based, human; settings: 5 or 20 μg/mL; FIG. 8
Protocol: […] Cells were seeded in triplicate and each well was counted in triplicate every 24 hours for 5 days using trypan blue exclusion.

[5] = biological target: B2; test: Western blot of TF-1 cell extracts (hybridoma clone screen)
Protocol: B. Replicate Scatchard analyses of 4D7 using I¹²⁵-labelled and unlabelled 4D7 bound to full-length peptide (n=3). C. […] Cells were cultured in the presence or absence of 10 ng/ml TPO (n=3). D. Paracrine CALR-mutant protein is not sufficient to maintain TPO sensitive cells in culture. TF1 TpoR and TF-1 TpoR CALR^del61 cells were seeded at the same density and cultured in the presence or absence of TPO. Cells were separated by semi-permeable membrane in a horizontal co-culture system. Cell populations on either side of the membrane were counted every 24 hours over 4 days in triplicate and representative images were taken on day 4. Exogenous CALR secreted by TF-1 TpoR CALR^del61 was unable to assist growth of factor dependent TF-1 TopR cells (n=3). E. Histogram overlays showing fluorescence intensity of unstained and PE conjugated IgG2a isotype control in TF-1, TF-1 TpoR and TF-1 TpoR CALR^del61 compared to 4D7 conjugated to PE.
(§2) For immunoblotting of total lysates, cells were lysed in NP40 buffer containing 150 mM NaCl, 50 mM Tris pH 7.6, 1% NP-40, supplemented with protease inhibitors (Complete, Roche) and phosphatase inhibitor cocktails, and boiled for 5 minutes after addition of sample buffer (60 mM Tris pH 6.8, 5% glycerol, 1% SDS, 2% β-mercaptoethanol, 0.02% bromophenol blue) before SDS gel electrophoresis followed by Western blotting (Tvorogov et al, 2010). […]

mutant CALR protein = test: Western blot detection of mutant CALR by hybridoma clones; type: binding, human; settings: cell extracts from TF-1 cells transduced with and without mutant CALR; data not shown
Protocol: as §1
For immunoblotting of total lysates, cells were lysed in NP40 buffer containing 150 mM NaCl, 50 mM Tris pH 7.6, 1% NP-40, supplemented with protease inhibitors (Complete, Roche) and phosphatase inhibitor cocktails, and boiled for 5 minutes after addition of sample buffer (60 mM Tris pH 6.8, 5% glycerol, 1% SDS, 2% β-mercaptoethanol, 0.02% bromophenol blue) before SDS gel electrophoresis followed by Western blotting (Tvorogov et al, 2010). Primary antibodies against pERK (#9101), pSTAT5 (#9359), ERK (#4695), Actin (#4970), Caspase 3 (#14220), wildtype CALR (#12238) were purchased from Cell Signalling. Primary antibodies against pSTATI (#612233), pSTAT3 (#612357), STATI (#610186), STAT3 (#610190), STAT5 (#610192) and Anti-phosphotyrosine 4G10 (#610012) were purchased from BD Biosciences. Mutant CALR monoclonal antibody CAL2 was purchased from Dianova (Hamburg, Germany). Immunopreciptation of TpoR was performed in standard NP40 lysis buffer with additional 50 mM iodoacetamide to avoid any de novo disulfide bond formation post lysis. To reduce IgG background during immunoprecipitation anti-FLAG conjugated to magnetic beads (Sigma, #M8823) were used. For this same reason, anti-FLAG-HRP conjugated antibodies (Sigma, #A8592) were used in western blotting.

[6] = biological target: T2, thrombopoietin receptor (TpoR); test: co-immunoprecipitation with anti-FLAG (MPL/TpoR), reducing Western blot
Protocol: B. Similar experiment using TPO-independent TF-1 TpoR CALR^del61 cells at 4 and 8 hours. C. Similar experiment shown using TPO-independent TF-1 TpoR CALR^del52 cells, 8 hours. D. Flow cytometry analysis for cell cycle distribution of TF-1 TpoR CALR^del61 cells exposed to 20 μg/mL IgG or 4D7 for 48 hours. Cells were harvested and fixed and stained with propidium iodide and their DNA contents were analysed. Results from one representative experiment shown. Percentages of cells in Sub Go, G1. S and G2/M cycle indicated. E. Western blot showing specific co-immunoprecipitation of mutant CALR^del61 cells with TpoR anti-FLAG antibody under reducing conditions detected by total and mutant specific CALR antibodies. Arrowheads represent detected CALR protein. F. Western blot showing decreased TpoR phosphorylation in a TpoR immunoprecipitated after 8 hours of 20 μg/mL 4D7 treatment compared to PBS or IgG control in TF-1 TpoR CALR^del61.
as §2

Molecule: N#CC[C@H](C1CCCC1)n1cc(-c2ncnc3[nH]ccc23)cn1 [ruxolitinib]
- inhibition at 0.05 µM ([1]; 50 nM, P=0.008): > 30%
- inhibition at 0.1 µM ([1]; 100 nM, P=0.07): > 30%

Molecule: B1
- binding result [2]: binds
- binding to peptide by ELISA [3]: positive binding
- proliferation of cytokine-independent TF1 TpoR/mutCALR cells [4]: inhibit proliferation
- binding result [5]: no binding
- detecting mutant but not wild type CALR protein by Western blotting (mutant CALR protein): superior activity

Molecule: B2
- binding result [6]: no binding
